The source of these data is publication PMC9352529.

In experiment [1] the target is human GABAA receptor α1 subunit (HEK293T cells stably expressing α1β2γ2) (human). Put plainly: co-IP; HEK293T cells stably expressing α1β2γ2 GABAA receptors, treated with non-targeting siRNA or siRNAs against both EMC3 and EMC6 for 48 h; lysate incubated with anti-α1 antibody; blot for SEC61α and α1.
Experiment [2] has as its target FLAG-tagged EMC6 N22A (human) (human) (UniProt Q9BV81). As to the kind of experiment: co-IP; HEK293T cells stably expressing α1β2γ2 GABAA receptors, transiently transfected with FLAG-tagged EMC3 variants, or with FLAG-tagged EMC5 and EMC6 variants; lysate (50 mM Tris pH 7.5, 150 mM NaCl, 2 mM DDM) on anti-FLAG M2 magnetic beads overnight at 4°C; blot for α1 and FLAG; band intensity of α1 over FLAG.

In experiment [3] the target is FLAG-tagged EMC3 R31A (human) (human) (UniProt Q9P0I2). The description is as above.
The target of experiment [4] is FLAG-tagged EMC6 D27A (human) (human) (UniProt Q9BV81). The experiment is described as above.
Experiment [5] has as its target FLAG-tagged EMC3 R180A (human) (human) (UniProt Q9P0I2). Described as above.

As to “SEC61α (endogenous, HEK293T) (from UniProt P61619 1-476) (natural protein)”, the normalized SEC61α over α1 intensity after IP, knock-down of both EMC3 and EMC6 against non-targeting siRNA in experiment [1] came to 5.3 fold.

With “human GABAA receptor α1 subunit (HEK293T cells stably expressing α1β2γ2) (natural protein)”, the α1 band intensity over FLAG-tagged EMC6 after IP, relative to WT EMC6 (relative to WT EMC6) amounted to 0.55 in experiment [2] and 0.72 in experiment [4]. For the same substance, the normalized α1 intensity over FLAG after IP, relative to WT EMC3 (relative to WT EMC3) was found to be 0.48 in experiment [3] and 0.4 in experiment [5].
